assay: soluble on expression in E. coli; label from the status in PepcDB or PDB records

Row | Sequence | soluble on expression in E. coli
1 | FSVEELSEILESHSIRLELQPILELETGRVGAAEGLLRINLDGTDVPTGQFVQSVEQAGLAPKLDIAVMREGINHIERLRAVCPTFSLALNLSGYSLSSAKIREELRAEFRARDLPRGSIRFEITETAPIEDIDAAKEFVQMLKDFGFHIVIDDFGAGHEPYQYLKKFDFSVLKIAGEFIEGMVTNRVDRSIVESIAQLAKDEEMETVAEFVSSKEILEAVREIGVTYAQGFHIGKSKPIDEFIATYLETNQTATWG | not soluble
2 | MGHHHHHHSHMTLIYVDADNTRNELKATTGSNFTITHRKDPLTTKWKTVFGNNGDQWLCNVTGIGNATVNSNATICVSSCGHNTLDLCNLKSGDSGFFDLSRWFGENMDEYSGDVWHLEVS | soluble
3 | LAWKRMEEHDWTCDCIRCREAGHSDDVAENIELDVMTYEACGGMEHFISFEDFENDVLVGFCRLRFPNDPVRRELQDAAIVRELHVYGNAVGVGQEGDDEDHQHKGYGKKLLEKAEVLARDAGFPKLAVISGIGVRQYYREKLGYKQDGPYVSKRL | not soluble
4 | MSLDSSRIKVVFWHEMKGPGQQAIDAYVKAFNHQQSKYEVVAEFEGGYNGVIQKILNTHGTAASPALFQSMDISTSQMYHSGFTTPMQKFIDRDHYDADQIIPGAKAIVMRDNQLLAMPFNASQTALYYNKRVLRQYGITPPPVDPTYDDITRVAKAIHDKSHGKVKGMTMEAYSWLFEQLVANAGVPVANHDNGHTGNATKVDFTSPAAINAMKWVKENIDYGDFMNFGSGGNAAANEAASFLAGHLGIFMQSSANTGQLYQVLKNDLGVTYFPRPNGQRANGIAVGGAALWIANDKPSAVQDGAWEFTKFLASAQTQADWQAKTGYLAVNKGAKDEPTLKKLFKKSPVLEVSGNQMLRTKPNNTNSGVFVDGWVPARTAIQTAMQQIFAGQDIRQSLQTAENTYNKVLESNNRANGREGHHHHHH | soluble
5 | ELNHRVKNTLATVQAIASLTVNSSTSLDSFRKSFDARLFALSQARAEWMSTELADLLAQLQDVNGGQHRITFTGDP | not soluble
6 | MNFADIFSKIRRQQPSVKEAPNHWVKCQSCHALMYYKEIESCFNVCPKCNYHMRISADERIKLLSDEGSFIEYDANLEAIDPLKFVDSKSYKKRLSEGESKTGRKSSVISGECEINGLKTQLVVFDFSFMGGSLGSVEGEKIVRAIQRAITSKTSLVIVSASGGARMQESTYSLMQMSKTSAALKLLSKEKLPYISILTDPTMGGVSASFAWLGDLIIAEPEALVGFAGARVIKQTIGADLPEGFQKAEFLLEHGLIDAIVERGEQKQYLSDVLKFFSGKLEHHHHHH | not soluble
7 | MIRLIGMEDGKTLEDLVKTKIATDTKHKPRKDAVLCSEMFLSASPEYFRPHDPSLAGEWNDERMVLFAKASITWLKTNYGDKCVRAELHLDEATPHIHAYIVPINDKTKLLSHKEMFGGDGRVGSIKLSKLQDSYAQALAPLGIERGVKGSKATHTKVKEYYQAVNSEPLTAVWSNQKLEHHHHHH | not soluble
8 | MREETFPGDIAQYFSVIHRAFLKDTKGEYAKYDLNPTNAYILLYLFFNKNSSQSELAQKLVINKGQITRETTKLLSLNFISKEISSKNRTTNVIAISSDGKKVIKKIIDIRNQWWEEKLKLSGVKTNSEFLDSLKKLESILN | not soluble
9 | MGSSIASSLMDPTQYYSQFISLQKASLEKAKTPYQNQISSYQSRIDLYASLKNALSDSLKTMSSFTTYESKTKLATSSNETSFTVSSTSSSVNGSYSIEVQNLATADT | not soluble
10 | MGSDKIHHHHHHMSGKPAARVTDPTTCPVPGHGSNPIVQGSPDVVFDGLPAARQGDASACGSPMISAVSSTVLINGLPAVTLGSIGAHGNVVIGGSGTVLIGDVFTPAPRAPALPLNRNSVPCSGRFQLIDHETGKPVAGRRVRVWSSGGWNAFDTTDADGMTSWIERPTAEILYIDLVQRCDA | not soluble
11 | MGSDKIHHHHHHMVSPEHLRRSKAVQRRTGRTFHIATRFLPERVRYPTYVLYAFFRLTDEIVDDEAPGPPDEQRRRLAHVRAAALGDRDPDDPVLAAFAALREDHDIPREEVTTFIDAMQQDVDTARYRSHDDLAEYLRGSSVAVGYMMLSIMDAPEPERARPHAASLGEAFQLTNFLRDVREDVLDYDRIYLPSQTLAAHGASHDDIAALSATPQVRDAIRAELDRTERLYRHGVAGIEHLPADCQFPVLAAAVMYADQHRLIRAQDCDVLSQRPTLTLRRRLSVVARTWLRWRVSDDPTAVFHAVTGIGEPDAGGVPEQSFAVRESQPTRAD | not soluble
12 | MAHHHHHHMNLNVSKDVNNYMKINGIIKKVDIKRYYNKKLNNWSYEDNAKEFDKKDEKEYGSKYEYNNKFINEEEKKDEEKKYRYDEKIHKGLYSEDNSTSMNNRYNNNESTYKMPKEILNRHEKIDLNSLPIDEEIINNLKIILNIEKLYMYQYIIYNEILKNSKHLLIYNKTGTGKTLSYLLPLIQKLINDKFDCNKKVLIITQNIYLCKQLYIYILSIYPTLNVCILSDEKESYNMNNNINNDIIVNIKRNNINPNDKENNDMCDEKYGIHFYLCTPNKLEYFIKNYKNKSRNDKNVMNNILNNINTIVIDEFDYIVEYRKNILNFFFKKDLFNEIHNNNNIRDKNRFNHDIFNKSNYNIYLFTANINEVIKKKIYEHLNGFVFFDFINGIKEHIQKQVAEQHNFNIDVLKNSENVVQLLNKENKNESLCNLNITHFVCKINSASKYKYVCYFLEEFFFHKQKISQKVYNDMVYDEYDKLNYRNMIPMEENKFVNNSEKEGNMKRSNADKINKCIIFANTKEEVEKLYEISLLKPHAVMMHSELLTIQKNENINLFKVGKKNVLITTDIISRGLDIDNVIFILNYSPPTSPNDYIHRSGRTGRGKEKGICLTMYHKYEYRNVDKIMKYTKNKFEVILCPK | not soluble
13 | MQNKIQVKSVEKRENALIFCAENSEIEVKELSARNHVLVDSDNLSFLYILENESSFIYVSIPHTCWEAMHEAMNNDVVMFVRVNDIEMELEGLKEEVEYLVENIEGNANYGEELVTAVEKVFL | not soluble
14 | MDLPKAYDPKSVEPKWAEKWAKNPFVANPKSGKPPFVIFMPPPNVTGSLHMGHALDNSLQDALIRYKRMRGFEAVWLPGTDHAGIATQVVVERLLLKEGKTRHDLGREKFLERVWQWKEESGGTILKQLKRLGASADWSREAFTMDEKRSRAVRYAFSRYYHEGLAYRAPRLVNWCPRCETTLSDLEVETEPTPGKLYTLRYEVEGGGFIEIATVRPETVFADQAIAVHPEDERYRHLLGKRARIPLTEVWIPILADPAVEKDFGTGALKVTPAHDPLDYEIGERHGLKPVSVINLEGRMEGERVPEALRGLDRFEARRKAVELFREAGHLVKEEDYTIALATCSRCGTPIEYAIFPQWWLRMRPLAEEVLKGLRRGDIAFVPERWKKVNMDWLENVKDWNISRQLWWGHQIPAWYCEDCQAVNVPRPERYLEDPTSCEACGSPRLKRDEDVFDTWFSSALWPLSTLGWPEETEDLKAFYPGDVLVTGYDILFLWVSRMEVSGYHFMGERPFKTVLLHGLVLDEKGQKMSKSKGNVIDPLEMVERYGADALRFALIYLATGGQDIRLDLRWLEMARNFANKLYNAARFVLLSREGFQAKEDTPTLADRFMRSRLSRGVEEITALYEALDLAQAAREVYELVWSEFCDWYLEAAKPALKAGNAHTLRTLEEVLAVLLKLLHPMMPFLTSELYQALTGKEELALEAWPEPGGRDEEAERAFEALKQAVTAVRALKAEAGLPPAQEVRVYLEGETAPVEENLEVFRFLSRADLLPERPAKALVKAMPRVTARMPLEGLLDVEEWRRRQEKRLKELLALAERSQRKLASPGFREKAPKEVVEAEEARLKENLEQAERIREALSQIG | soluble
15 | MADHSIQGKVALIAGGAKNLGGLIARDLAAHGARAIAIHYNSPASKADADATVAALQAAGAQAVALQGDLTTAAAVEKLYADALAAVGRPDIAINTVGKVLKKPFSEISEAEYDEMAAVNAKSAFFFLKEAGRHVNDHGKIVTLVTSLLGAFTPFYSAYAGTKAPVEHYTRAAAKEFGARGISVTAVGPGPMDTPFFYGQESPEAVAYHQSAAALSPHSPTGLTHIEDVVPFIRHLVSDGWWITGQTLLINGGYTTK | not soluble
16 | MSLSIIVASTMSDSGKSFITTGLVRILNAKPLKIQNMSLNSISTWDGGEIAFIQAYQAWGAGLRPERYMNPILLKIMGKGLEVIFMGSSLGIMSGNEYYNLATEKLWKKVSQFLSNDVVIEAAGGIGEPNFIDKDITAIKVMKEKRIPAILVLDIDRGGAFASAYGTYMMLPQSVRENLKGFIINKFRGDEKFLNDAIKWLEEKTGMRYLGYLPFFSEPPIMPEDSMNVYNFGDGNVEVAIIAYPYMSNFNEFYALVKSNARVSFVRKPKETAKADLVILPGSRNTLESLKWLVENGFVEQLRQRSMNILGICGGFQILGKKIVDPYGIEAGYPTEYEGLGIFDINVHYSKDKVVSMTTGISEYGEMNGYEIRRGVIKYMGEKPLLKITLRNGEKVSVEDGAKKDNIIGISVHGTLFSDGMKKLLKEFNINIHSQSMEEEIKQQAIRVEQFLRKYLHIDEIVEIYKEGHHHHHH | not soluble
17 | MGSDKIHHHHHHVLKELNQLMDHIERHLTEELSGMDIVRITGVSEYHFRRMFSYMSGMTLNEYIRNRRLSQANINLVNQHSVTEVAYEYGYQSIEGFSRAFREWSGFLPSEVIKNKIQKSFPRFTFYIDIKGGVSMEFKIERKSQFHVVGVSKRVPIQFEGVNHSIVELAQSITPQQRQEMQQLADLYPETVLNVSFDFDEGYLEEQGSLTHMIGFATSRQNPYGDLEQITIEDSLWAVFPNTGPFPQMLQETMAKTYAEWLPTSGYELVDLPSILFTNHEDDSLNVYSEVWVPVKEKTTS | not soluble
18 | MGSDKIHHHHHHMRTFRLVIACPDRVGIVAKVSNFLASHNGWITEASHHSDNLSGWFFMRHEIRADTLPFDLDGFREAFTPIAEEFSMDWRITDSAQKKRVVLMASRESHCLADLLHRWHSDELDCDIACVISNHQDLRSMVEWHDIPYYHVPVDPKDKEPAFAEVSRLVGHHQADVVVLARYMQILPPQLCREYAHQVINIHHSFLPSFVGAKPYHQASLRGVKLIGATCHYVTEELDAGPIIEQDVVRVSHRDSIENMVRFGRDVEKMVLARGLRAHLEDRVLVHDNKTVVFD | not soluble
19 | MKIMGFYSQVILPRLLDWSLSDPTLATYRQELLTDVTGEVLEIGFGTGLNLAYYPSHIHKITTVDVNPGMNTIAQKRIDDSGIKVQQLLLSGENLPMADNTFDSVVSTWTLCSIANVEQALQEVYRVLKPGGKFFFLEHGLSNKPNVQVWQNRLTPIQKVLADGCHLNRNIQQLVEQSFDHVELKRFTPENFPDLMAHFYKGCATKKSILEHHHHHH | soluble
20 | MMRPDAKVEKVYLYPKPVDFRKSIDGLAALVELDIKVAVFDPVLFVFLNRHRNRVKILYWERNGFCLWLKRLESERFKTSPDETDEAIVLTVQELNWLLDGFDLWRNRPHKVLTPRFVA | not soluble
21 | AMAISDPEETLMDSTTATAELGWMVHPPSGWEEVSGYDENMNTIRTYQVCNVFESSQNNWLRTKFIRRRGAHRIHVEMKFSVRDCSSIPSVPGSCKETFNLYYYEADFDLATKTFPNWMENPWVKVDTIAADESISQVDLGGRVMKINTEVRSFGPVSRNGFYLAFQDYGGCMSLIAVRVFYRKCPR | soluble
22 | MPFPFGKSHKSPADIVKNLKESMAVLEKQDISDKKAEKATEEVSKNLVAMKEILYGTNEKEPQTEAVAQLAQELYNSGLLSTLVADLQLIDFEGKKDVAQIFNNILRRQIGTRTPTVEYICTQQNILFMLLKGYESPEIALNCGIMLRECIRHEPLAKIILWSEQFYDFFRYVEMSTFDIASDAFATFKDLLTRHKLLSAEFLEQHYDRFFSEYEKLLHSENYVTKRQSLKLLGELLLDRHNFTIMTKYISKPENLKLMMNLLRDKSRNIQFEAFHVFKVFVANPNKTQPILDILLKNQAKLIEFLSKFQNDRTEDEQFNDEKTYLVKQIRDLKRPAQQEA | soluble
